Consider one molecule from patent publication US20050053993A1, “Uses of an endothelial cell receptor” (priority 2002, published 2005).

The test system of test [1] is GRP78 siRNA transfected HMVEC cells. The test is described as follows: 3HK5 binding to GRP78 siRNA transfected cells. Further details: species or system human. Conditions: compared to scrambled siRNA transfected cells. As to the method:
FIG. 13 is a graph comparing the effect of binding of rK5 to GRP78 siRNA transfected HMVEC cells and scrambled siRNA transfected cells. GRP78 siRNA or scrambled siRNA transfected EaHy cells were grown in 96 well plates. The media was changed and ^3HK5 in PBS was added to the cells. The cells were incubated at room temperature for two hours then washed thoroughly. Cell counts were measure for bound ^3HK5. Data points are the average of triplicate studies.
In selected studies, GRP78 siRNA- or scrambled siRNA-transfected EaHy cells were grown in 96 well plates. The media was changed and ^3HK5 in PBS was added to the cells at various concentrations. The cells were incubated at room temperature for two hours then washed thoroughly. Cell counts were measured for bound ^3HK5 as described above. Data points were calculated from the average of triplicate samples.

A further test deals with HT-29. The test is described as follows: Tumor cell proliferation, HT-29. The conditions noted are these: HT-29, 72 hours. The format is cell-based. As to the method:
(§1) Cell Proliferation Assay. The effect of rK5 and rK5 peptides on endothelial cells were assessed using a proliferation assay with 1% BSA and 3 ng/ml bFGF in serum-free media. Relative cell numbers in each well of a 96 well microplate after incubation for 72 hours in the absence or presence of inhibitors were determined by using the AQueous cell proliferation assay (Promega, San Luis Obispo, Calif.). For all other cell lines tested for proliferation, minimal growth media was used (Cao, Y., Ji, R., Davidson, D., Schaller, J., Marti, D., Sohndel, S., McCance, S., O'Reilly, M., Llinas, M., and Folkman, J. Kringle domains of human angiostatin. Characterization of the anti-proliferative activity on endothelial cells. (1996) J. Biol. Chem. 271, 29461-29467). Results are presented as the percent inhibition of control cell (bFGF-induced) proliferation.

Another test concerns LNCaP. The test is described as follows: Tumor cell proliferation, LNCaP. The class given is cell-based. The conditions noted are these: 72 hours. As for the experimental part:
as §1

In test [2] the target is T1, recombinant human GRP78 (rGRP78) (Homo sapiens, UniProt P11021).
T1 construct: host or cells: yeast
The experiment in a line: Equilibrium dialysis of rGRP78 and 3HK5. The conditions noted are these: competition dialysis, 2 nM GRP78 and 2 nM 3HK5; mutant up to 25-fold excess of GRP78. The format is binding. As to the method: FIG. 14A is a graph showing equilibrium dialysis of recombinant GRP78 (rGRP78) and ^3HK5. ^3HK5 was added to one side of an equilibrium chamber at concentrations from 0.1 to 3 nM. 2 nM GRP78 was added to the other side of the chamber with a […] mwco filter between. ^3HK5 was allowed to equilibrate to both side of the chamber for 72 hours at room temperature. The amount of ^3HK5 on the GRP78 side of the chamber was compared to chamber with ^3HK5 alone to obtain the bound verses free rK5 distribution.
FIG. 14B is a graph showing competition binding dialysis rGRP78 and ^3HK5. Experiments were performed with 2 nM GRP78 and 2 nM ^3HK5 using rK5(K82A) mutant and unlabeled rK5 at various concentrations from 0.5 to 50 nM. The amount of ^3HK5 on both sides of the chamber was measured after 72 hours and compared to the control.
Binding of rK5 to rGRP78 was measured using equilibrium dialysis (Kariv I, Cao H, Oldenburg K R. Development of a high throughput equilibrium dialysis method. J Pharm Sci. 2001 May; 90(5):580-87). In the top well of a 96 well equilibrium dialyzer (molecular weight cut off 50K Daltons, Harvard Apparatus, Holliston, M A) 150 μl of 10 nM rGRP78 was added. In the reciprocal (bottom) chamber, 150 μl of increasing concentrations from 0.1 to 50 nM ^3HK5 was added. The chambers were shaken at room temperature for 72 hours. […]

For the next test, the system named is Lewis Lung Carcinoma. The experiment in a line: Tumor cell proliferation, Lewis Lung Carcinoma. The class given is cell-based. Conditions: 72 hours. As for the experimental part:
as §1

The target in test [3] is T2, recombinant GRP78 ATPase domain (Homo sapiens, UniProt P11021).
T2 construct: NMR studies with a recombinant GRP78 ATPase domain
The experiment in a line: NMR binding to recombinant GRP78 ATPase domain.

Test [4] concerns bovine endothelial cell proliferation. Conditions: previously reported (Cao et al. 1996); read-out: IC50, inhibition of bovine endothelial cell proliferation; cited from earlier work.
A further test deals with PC3. The experiment in a line: Tumor cell proliferation, PC3. The class given is cell-based. Conditions: PC3, 72 hours. As for the experimental part:
as §1

The next test has as its system HMVEC cells. The experiment in a line: Apoptosis of stimulated endothelial cells (histone ELISA). The format is cell-based, human. As for the experimental part:
FIG. 9B is a graph showing the induction by rK5 of apoptosis in stimulated endothelial cells. The rate of apoptosis was measured in HMVEC cells using a histone detection kit (Markwell, M. A. K. Anal Biochem 1982, 125, 427-432.) HMVECs were grown in 96 well plates. Recombinant K5 at various concentrations was added to plates and incubated overnight. Apoptosis was determined from triplicate samples and the Apoptotic index was determined by dividing the absorbance from the treated cells by the absorbance from the untreated cells.
Assessment of Cellular Apoptosis: The effects of rK5 and rK5 peptide-induced apoptosis were determined with a histone ELISA apoptosis assay (Roche, Indianapolis, Ind.)(Mayr M, Li C, Zou Y, Huemer U, Hu Y, Xu Q. Biomechanical stress-induced apoptosis in vein grafts involves p38 mitogen-activated protein kinases. FASEB J. 2000 Feb.; 14(2):261-70) Cells (5000 per well) were grown in 96 well plates. rK5 and/or an antibody to GRP78 were added to plates and incubated overnight. Apoptosis was determined from triplicate samples and the Apoptotic Index was determined by dividing the absorbance from the treated cells by the absorbance from the untreated cells.

A further test concerns A549. The test is described as follows: Tumor cell proliferation, A549. Conditions: A549, 72 hours. The class given is cell-based. As for the experimental part: as §1
In the next test the test system is neutrophils. The experiment in a line: Neutrophil migration. The class given is cell-based. Conditions: concentrations up to 1000-fold higher than for endothelial cell migration; data not shown.

T2 sequence (P11021 19-408): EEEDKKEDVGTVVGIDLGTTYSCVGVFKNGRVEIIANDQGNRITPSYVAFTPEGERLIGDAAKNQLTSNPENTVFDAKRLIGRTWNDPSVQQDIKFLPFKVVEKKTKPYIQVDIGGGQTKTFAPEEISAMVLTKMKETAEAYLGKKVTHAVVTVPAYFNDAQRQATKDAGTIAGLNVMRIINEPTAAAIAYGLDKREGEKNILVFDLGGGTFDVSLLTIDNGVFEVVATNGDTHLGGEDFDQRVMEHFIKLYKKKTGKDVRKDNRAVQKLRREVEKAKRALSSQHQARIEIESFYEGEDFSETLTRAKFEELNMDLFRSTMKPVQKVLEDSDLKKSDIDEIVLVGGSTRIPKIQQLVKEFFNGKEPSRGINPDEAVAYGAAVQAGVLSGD
T1 sequence (P11021 19-654): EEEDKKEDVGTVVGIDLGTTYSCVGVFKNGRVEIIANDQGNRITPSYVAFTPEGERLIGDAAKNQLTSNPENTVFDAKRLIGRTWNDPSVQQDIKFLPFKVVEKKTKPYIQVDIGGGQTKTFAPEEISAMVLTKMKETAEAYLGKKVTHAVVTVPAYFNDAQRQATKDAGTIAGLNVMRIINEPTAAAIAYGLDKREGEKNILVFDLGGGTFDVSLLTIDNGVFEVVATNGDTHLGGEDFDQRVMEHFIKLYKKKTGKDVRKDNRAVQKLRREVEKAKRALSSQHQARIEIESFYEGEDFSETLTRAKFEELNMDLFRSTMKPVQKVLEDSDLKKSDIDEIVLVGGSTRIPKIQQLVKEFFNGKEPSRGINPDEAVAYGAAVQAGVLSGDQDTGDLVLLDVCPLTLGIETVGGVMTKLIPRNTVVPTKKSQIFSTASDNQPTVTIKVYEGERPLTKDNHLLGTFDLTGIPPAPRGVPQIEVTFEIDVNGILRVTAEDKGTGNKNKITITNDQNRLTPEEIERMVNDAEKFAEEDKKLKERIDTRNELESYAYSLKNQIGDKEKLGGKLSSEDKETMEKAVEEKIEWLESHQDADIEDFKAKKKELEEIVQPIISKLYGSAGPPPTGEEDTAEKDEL

B1: rK5: recombinant kringle 5 fragment of human plasminogen (residues 450-543), expressed in E. coli or yeast (protein)
chain: LLPDVETPSEEDCMFGNGKGYRGKRATTVTGTPCQDWAAQEPHRHSIFTPETNPRAGLEKNYCRNPDGDVGGPWCYTTNPRKLYDYCDVPQCAA
As for B1, in [1], the “binding to GRP78 siRNA transfected HMVEC cells” value was “very low”. Also, the “IC50 values for cell proliferation” value in the test on HT-29, in the test on LNCaP, in the test on Lewis Lung Carcinoma, in the test on PC3 and with A549 was above 100 µg/mL throughout. The “blocking of 3HK5 binding to rGRP78” value in test [2] was “blocked”. Besides, the “binding with the ATPase domain of GRP78 (NMR)” value in test [3] is “direct binding”. In addition, in test [4], the IC50 was around 50 nM. Also, the “induction of endothelial cell apoptosis” value in the test with HMVEC cells is 1 nM. Moreover, the “apoptosis of stimulated endothelial cells” value in the test on HMVEC cells (overnight, FIG. 9B) is given as “induced”. The “inhibition of migration of neutrophils” value in the test with neutrophils is “failed to inhibit”.
